Source: patent US11525133 (dated 2022)

Target: p53-TPR2
Assay: ITC

Kd: 0.054 µM
B1: Mdm2 N-terminal domain (other)
chain: SQIPASEQETLVRPKPLLLKLLKSVGAQKDTYTMKEVLFYLGQYIMTKRLYDEKQQHIVYCSNDLLGDLFGVPSFSVKEHRKIYTMIYRNLVVVNQQESSDSGTSVSEN
